How the values were obtained:
[1] = target: PBP4 (penicillin binding protein 4, DD-carboxy/endopeptidase), purified, untagged (E. coli) (UniProt P24228); test: AUC; sedimentation velocity, 45,000 rpm, 20°C, 25 mM HEPES/NaOH, 150 mM NaCl, pH 7.5, about 0.25 to 1.4 mg/ml; c(s) analysis
[2] = target: LpoA, soluble (LpoAΔ1–27) (E. coli) (UniProt P45464); test: MST; one protein fluorescently labelled (NT-647 dye) at a fixed concentration, two-fold serial dilution of unlabelled ligand over 16 samples; 25 mM HEPES/NaOH, 150 mM NaCl, 0.05% Triton X-100, pH 7.5; Monolith NT.115; apparent KD
[3] = target: EnvC, soluble version without the N-terminal 34 amino acid signal peptide (E. coli) (UniProt P37690); test: as above
[4] = target: PBP4ΔD3 (PBP4 lacking domain 3), His-tagged (E. coli) (UniProt P24228); test: AUC; sedimentation velocity, 45,000 rpm, 20°C, 25 mM HEPES/NaOH, 150 mM NaCl, pH 7.5, about 0.25 to 1.4 mg/ml; c(s) analysis
[5] = target: LpoA^N, N-terminal domain of LpoA (residues G28-T256) (E. coli) (UniProt P45464); test: MST; one protein fluorescently labelled (NT-647 dye) at a fixed concentration, two-fold serial dilution of unlabelled ligand over 16 samples; 25 mM HEPES/NaOH, 150 mM NaCl, 0.05% Triton X-100, pH 7.5; Monolith NT.115; apparent KD
[6] = target: T1, EnvC, soluble version without the N-terminal 34 amino acid signal peptide (E. coli, UniProt P37690 35-419); test: as above; conditions: both partners purified
T1 construct: EnvC of E. coli, soluble version without the N-terminal, 34 amino acid long, signal peptide; the text calls it full-length EnvC; In MST fluorescently labelled (Fl-EnvC) in some runs; also called full-length EnvC; Fl-EnvC; source: E. coli BL21(DE3) pET28a-His-EnvC, purified (HisTrap, thrombin, Superdex 200)
T1 sequence (looked up): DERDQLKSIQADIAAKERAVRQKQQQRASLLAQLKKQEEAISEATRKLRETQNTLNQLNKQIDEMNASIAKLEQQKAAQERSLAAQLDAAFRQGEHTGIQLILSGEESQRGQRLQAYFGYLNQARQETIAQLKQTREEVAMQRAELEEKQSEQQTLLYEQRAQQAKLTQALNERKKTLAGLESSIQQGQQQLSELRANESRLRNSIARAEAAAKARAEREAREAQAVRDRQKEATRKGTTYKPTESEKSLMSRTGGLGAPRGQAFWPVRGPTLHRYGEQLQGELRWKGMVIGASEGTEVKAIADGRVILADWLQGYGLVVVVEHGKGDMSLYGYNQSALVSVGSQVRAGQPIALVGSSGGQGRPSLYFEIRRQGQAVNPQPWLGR

[7] = target: T2, PBP4 (penicillin binding protein 4, DD-carboxy/endopeptidase), purified, untagged (E. coli, UniProt P24228 61-477); test: MST
T2 chain: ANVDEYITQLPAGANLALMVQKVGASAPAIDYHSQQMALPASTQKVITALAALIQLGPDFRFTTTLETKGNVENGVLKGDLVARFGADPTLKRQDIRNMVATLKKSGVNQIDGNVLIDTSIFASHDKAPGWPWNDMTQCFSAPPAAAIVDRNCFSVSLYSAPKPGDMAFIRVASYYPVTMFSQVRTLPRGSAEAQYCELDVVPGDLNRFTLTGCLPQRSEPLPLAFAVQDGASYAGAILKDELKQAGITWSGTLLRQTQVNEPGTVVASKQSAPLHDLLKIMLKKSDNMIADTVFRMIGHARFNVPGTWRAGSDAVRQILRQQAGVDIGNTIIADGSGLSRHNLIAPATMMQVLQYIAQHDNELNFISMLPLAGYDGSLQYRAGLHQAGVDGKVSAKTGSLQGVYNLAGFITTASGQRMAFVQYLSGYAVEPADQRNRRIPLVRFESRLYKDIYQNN

[8] = target: T1, EnvC, soluble version without the …; test: pull-down; Ni-NTA beads; equimolar (1–2 μM) His-tagged and untagged proteins; 10 mM HEPES/NaOH, 10 mM MgCl2, 150 mM NaCl, 0.05% Triton X-100, pH 7.5, 4°C; washes with 30 mM imidazole; SDS-PAGE; His-NlpI also with PBP4 and EnvC together; conditions: both partners purified
[9] = target: PBP4ΔD3 (PBP4 lacking domain 3), His-tagged (E. coli, UniProt P24228 21-477, PBP4Δ173–247 (domain 3)); test: MST

PBP4 (penicillin binding protein 4, DD-carboxy/endopeptidase), purified, untagged (from UniProt P24228 61-477) (enzyme)
stoichiometry N [1]: 2 | Kd [2]: 315 nM | Kd [3]: 307 nM

PBP4ΔD3 (PBP4 lacking domain 3), His-tagged (from UniProt P24228 21-477) (enzyme)
stoichiometry N [4]: 2 | Kd [2]: 153 nM | fold decrease of app. KD against PBP4 [5]: 50 fold | Kd [3]: > 5900 nM

B1: NlpI, soluble, as used in microscale thermophoresis (natural protein, E. coli, UniProt P0AFB1 19-294, looked up)
chain: CSNTSWRKSEVLAVPLQPTLQQEVILARMEQILASRALTDDERAQLLYERGVLYDSLGLRALARNDFSQALAIRPDMPEVFNYLGIYLTQAGNFDAAYEAFDSVLELDPTYNYAHLNRGIALYYGGRDKLAQDDLLAFYQDDPNDPFRSLWLYLAEQKLDEKQAKEVLKQHFEKSDKEQWGWNIVEFYLGNISEQTLMERLKADATDNTSLAEHLSETNFYLGKYYLSLGDLDSATALFKLAVANNVHNFVEHRYALLELSLLGQDQDDLAESDQQ
notes: NlpI, outer membrane lipoprotein of E. coli, 'Soluble NlpI construct'; In some MST runs fluorescently labelled (Fl-NlpI); also called Fl-NlpI; source: purified from overexpression strain according to published procedures [55]; (plasmid pET28a-His-NlpI)
binding result [6]: binds | Kd [7]: 177 nM

B2: His-NlpI (oligo-histidine tagged soluble NlpI) (natural protein, E. coli, UniProt P0AFB1 19-294, looked up)
chain: CSNTSWRKSEVLAVPLQPTLQQEVILARMEQILASRALTDDERAQLLYERGVLYDSLGLRALARNDFSQALAIRPDMPEVFNYLGIYLTQAGNFDAAYEAFDSVLELDPTYNYAHLNRGIALYYGGRDKLAQDDLLAFYQDDPNDPFRSLWLYLAEQKLDEKQAKEVLKQHFEKSDKEQWGWNIVEFYLGNISEQTLMERLKADATDNTSLAEHLSETNFYLGKYYLSLGDLDSATALFKLAVANNVHNFVEHRYALLELSLLGQDQDDLAESDQQ
notes: NlpI, outer membrane lipoprotein of E. coli, 'Soluble NlpI construct'; Bait on Ni-NTA beads; also called oligohistidine-tagged-NlpI; source: purified from overexpression strain according to published procedures [55]; (plasmid pET28a-His-NlpI); not shown: His, N-terminal, kept
binding result [8]: binds

B3: LpoA^C, C-terminal domain of LpoA (residues N257-S678) (domain or fragment)
chain: NKIALLLPLNGQAAVFGRTIQQGFEAAKNIGTQPVAAQVAAAPAADVAEQPQPQTVDGVASPAQASVSDLTGEQPAAQPVPVSAPATSTAAVSAPANPSAELKIYDTSSQPLSQILSQVQQDGASIVVGPLLKNNVEELLKSNTPLNVLALNQPENIENRVNICYFALSPEDEARDAARHIRDQGKQAPLVLIPRSSLGDRVANAFAQEWQKLGGGTVLQQKFGSTSELRAGVNGGSGIALTGSPITLRATTDSGMTTNNPTLQTTPTDDQFTNNGGRVDAVYIVATPGEIAFIKPMIAMRNGSQSGATLYASSRSAQGTAGPDFRLEMEGLQYSEIPMLAGGNLPLMQQALSAVNNDYSLARMYAMGVDAWSLANHFSQMRQVQGFEINGNTGSLTANPDCVINRNLSWLQYQQGQVVPVS
Kd [7]: 226 nM | Kd [9]: 315 nM

B4: LpoA^N, N-terminal domain of LpoA (residues G28-T256) (domain or fragment)
chain: GTHTPDQSTAYMQGTAQADSAFYLQQMQQSSDDTRINWQLLAIRALVKEGKTGQAVELFNQLPQELNDAQRREKTLLAVEIKLAQKDFAGAQNLLAKITPADLEQNQQARYWQAKIDASQGRPSIDLLRALIAQEPLLGAKEKQQNIDATWQALSSMTQEQANTLVINADENILQGWLDLQRVWFDNRNDPDMMKAGIADWQKRYPNNPGAKMLPTQLVNVKAFKPAST
Kd [7]: 954 nM | Kd [9]: 17 nM

B5: PBP1A, purified (full length His-PBP1A) (enzyme)
chain: MKFVKYFLILAVCCILLGAGSIYGLYRYIEPQLPDVATLKDVRLQIPMQIYSADGELIAQYGEKRRIPVTLDQIPPEMVKAFIATEDSRFYEHHGVDPVGIFRAASVALFSGHASQGASTITQQLARNFFLSPERTLMRKIKEVFLAIRIEQLLTKDEILELYLNKIYLGYRAYGVGAAAQVYFGKTVDQLTLNEMAVIAGLPKAPSTFNPLYSMDRAVARRNVVLSRMLDEGYITQQQFDQTRTEAINANYHAPEIAFSAPYLSEMVRQEMYNRYGESAYEDGYRIYTTITRKVQQAAQQAVRNNVLDYDMRHGYRGPANVLWKVGESAWDNNKITDTLKALPTYGPLLPAAVTSANPQQATAMLADGSTVALSMEGVRWARPYRSDTQQGPTPRKVTDVLQTGQQIWVRQVGDAWWLAQVPEVNSALVSINPQNGAVMALVGGFDFNQSKFNRATQALRQVGSNIKPFLYTAAMDKGLTLASMLNDVPISRWDASAGSDWQPKNSPPQYAGPIRLRQGLGQSKNVVMVRAMRAMGVDYAAEYLQRFGFPAQNIVHTESLALGSASFTPMQVARGYAVMANGGFLVDPWFISKIENDQGGVIFEAKPKVACPECDIPVIYGDTQKSNVLENNDVEDVAISREQQNVSVPMPQLEQANQALVAKTGAQEYAPHVINTPLAFLIKSALNTNIFGEPGWQGTGWRAGRDLQRRDIGGKTGTTNSSKDAWFSGYGPGVVTSVWIGFDDHRRNLGHTTASGAIKDQISGYEGGAKSAQPAWDAYMKAVLEGVPEQPLTPPPGIVTVNIDRSTGQLANGGNSREEYFIEGTQPTQQAVHEVGTTIIDNGEAQELF
Kd [7]: 67 nM | Kd [9]: 240 nM
